# Test results published in publication PMC3899018, “Biochemical and Structural Studies of Conserved Maf Proteins Revealed Nucleotide Pyrophosphatases with a Preference for Modified Nucleotides” (Chemistry & Biology, 2013).
# B1: YceF (Escherichia coli K-12) (protein)
# chain: MPKLILASTSPWRRALLEKLQISFECAAPEVDETPRSDESPRQLVLRLAQEKAQSLASRYPDHLIIGSDQVCVLDGEITGKPLTEENARLQLRKASGNIVTFYTGLALFNSANGHLQTEVEPFDVHFRHLSEAEIDNYVRKEHPLHCAGSFKSEGFGITLFERLEGRDPNTLVGLPLIALCQMLRREGKNPLMG
# notes: full-length recombinant, expressed in E. coli; mixture of monomers and dimers
# B2: BSU28050 (Bacillus subtilis subsp. subtilis str. 168) (protein)
# chain: MTKPLILASQSPRRKELLDLLQLPYSIIVSEVEEKLNRNFSPEENVQWLAKQKAKAVADLHPHAIVIGADTMVCLDGECLGKPQDQEEAASMLRRLSGRSHSVITAVSIQAENHSETFYDKTEVAFWSLSEEEIWTYIETKEPMDKAGAYGIQGRGALFVKKIDGDYYSVMGLPISKTMRALRHFDIRA
# notes: full-length recombinant, expressed in E. coli; dimer
# B3: STM1189 (Salmonella enterica subsp. enterica serovar Typhimurium str. LT2) (protein)
# chain: MPRLILASTSPWRRALLEKLTIPFECAAPDVDETPMPGEAPRQLVLRLAQAKAQSLAARFPNHLIIGSDQICVLDGEITGKPLTEEKARQQLAKASGNIVTFYTGLALYNSASGHLQTEVEPFDVHFRHLSEAEIDDYVRKEHPLHCAGSFKSEGLGIALFERLEGRDPNTLIGLPLIALCQMLRREGFNPLQQ
# notes: full-length recombinant, expressed in E. coli
# B4: ASMTL-Maf (Homo sapiens) (protein)
# chain: MVLCPVIGKLLHKRVVLASASPRRQEILSNAGLRFEVVPSKFKEKLDKASFATPYGYAMETAKQKALEVANRLYQKDLRAPDVVIGADTIVTVGGLILEKPVDKQDAYRMLSRLSGREHSVFTGVAIVHCSSKDHQLDTRVSEFYEETKVKFSELSEELLWEYVHSGEPMDKAGGYGIQALGGMLVESVHGDFLNVVGFPLNHFCKQLVKLYYPPRPEDLRRSVKHDSIPAADTFEDLS
# notes: N-terminal Maf domain, residues 1-239, recombinant from E. coli; dimer
# B5: YOR111W (Saccharomyces cerevisiae S288C) (protein)
# chain: MSGNSQLPPDVIGFICSKYDIILASTSPRRYEILHDIMGITDLKTMVSTFEENLDKMNYSTDPIGYVCDTSWHKAQNIIEILTDYEDENPNEIDKPKLIICADTIIIDKSGRIYEKPKTKEVQKKFLMKFCYEDDEPVNVVTAVTLIKWYGRENFELVPFRDETKVYFDNKIPLRILEEYVESGDGLEVGGGFKIQGQGAILIEKIEGDYYNVVGLPLNKTFKGLYAEANSI
# notes: as for B3
# B6: YhdE (Escherichia coli K-12) (protein)
# chain: MTSLYLASGSPRRQELLAQLGVTFERIVTGIEEQRQPQESAQQYVVRLAREKARAGVAQTAKDLPVLGADTIVILNGEVLEKPRDAEHAAQMLRKLSGQTHQVMTAVALADSQHILDCLVVTDVTFRTLTDEDIAGYVASDEPLDKAGAYGIQGLGGCFVRKINGSYHAVVGLPLVETYELLSNFNALREKRDKHDG
# notes: full-length recombinant, expressed in E. coli; predicted monomer mass 24 kDa; mixture of dimers and tetramers
# What was measured:
# Experiment in all cases: pyrophosphatase-coupled Pi release assay
# [1] = substrate: C[n+]1cn([C@@H]2O[C@H](COP(=O)(O)OP(=O)(O)OP(=O)(O)O)[C@@H](O)[C@H]2O)c2nc(N)[nH]c(=O)c21; format: biochemical, Escherichia coli; details: 2 mM Co2+, 37°C
# Source text: pyrophosphatase-coupled Pi release assay on YceF
# [2] = substrate: Cc1cn([C@@H]2O[C@H](COP(=O)(O)OP(=O)(O)OP(=O)(O)O)[C@@H](O)[C@H]2O)c(=O)[nH]c1=O; format: biochemical, Bacillus subtilis; details: 2 mM Co2+, 30°C
# Source text: (§1) pyrophosphatase-coupled Pi release assay on BSU28050
# [3] = substrate: Cc1cn([C@@H]2O[C@H](COP(=O)(O)OP(=O)(O)OP(=O)(O)O)[C@@H](O)[C@H]2O)c(=O)nc1N; format: biochemical, Bacillus subtilis; details: 2 mM Co2+, 30°C
# Source text: as §1
# [4] = substrate: Nc1ccn([C@@H]2O[C@H](COP(=O)(O)OP(=O)(O)OP(=O)(O)O)[C@@H](O)[C@H]2O)c(=O)n1; format: biochemical, Bacillus subtilis; details: 2 mM Co2+, 30°C
# Source text: as §1
# [5] = substrate: O=c1[nH]cc([C@@H]2O[C@H](COP(=O)(O)OP(=O)(O)OP(=O)(O)O)[C@@H](O)[C@H]2O)c(=O)[nH]1; format: biochemical, Bacillus subtilis; details: 2 mM Co2+, 30°C
# Source text: as §1
# [6] = substrate: C[n+]1cn([C@@H]2O[C@H](COP(=O)(O)OP(=O)(O)OP(=O)(O)O)[C@@H](O)[C@H]2O)c2nc(N)[nH]c(=O)c21; format: biochemical, Salmonella enterica; details: 2 mM Co2+, 37°C
# Source text: pyrophosphatase-coupled Pi release assay on STM1189
# [7] = substrate: CNc1ccn([C@H]2C[C@H](O)[C@@H](COP(=O)(O)OP(=O)(O)OP(=O)(O)O)O2)c(=O)n1; format: biochemical, Homo sapiens; details: 2 mM Co2+, 37°C
# Source text: (§2) pyrophosphatase-coupled Pi release assay on ASMTL-Maf
# [8] = substrate: Cc1cn([C@@H]2O[C@H](COP(=O)(O)OP(=O)(O)OP(=O)(O)O)[C@@H](O)[C@H]2O)c(=O)[nH]c1=O; format: biochemical, Homo sapiens; details: 2 mM Co2+, 37°C
# Source text: as §2
# [9] = substrate: Nc1ccn([C@@H]2O[C@H](COP(=O)(O)OP(=O)(O)OP(=O)(O)O)[C@@H](O)[C@H]2O)c(=O)n1; format: biochemical, Homo sapiens; details: 2 mM Co2+, 37°C
# Source text: as §2
# [10] = substrate: Nc1nc2c([nH]c(=O)n2[C@@H]2O[C@H](CO[P@@](=O)(O)O[P@@](=O)(O)OP(=O)(O)O)[C@@H](O)[C@H]2O)c(=O)[nH]1; format: biochemical, Homo sapiens; details: 2 mM Co2+, 37°C
# Source text: as §2
# [11] = substrate: Cc1cn([C@@H]2O[C@H](COP(=O)(O)OP(=O)(O)OP(=O)(O)O)[C@@H](O)[C@H]2O)c(=O)[nH]c1=O; format: biochemical, Saccharomyces cerevisiae; details: 2 mM Co2+, 30°C
# Source text: (§3) pyrophosphatase-coupled Pi release assay on YOR111W
# [12] = substrate: O=c1[nH]cc([C@@H]2O[C@H](COP(=O)(O)OP(=O)(O)OP(=O)(O)O)[C@@H](O)[C@H]2O)c(=O)[nH]1; format: biochemical, Saccharomyces cerevisiae; details: 2 mM Co2+, 30°C
# Source text: as §3
# [13] = substrate: O=c1ccn([C@@H]2O[C@H](COP(=O)(O)OP(=O)(O)OP(=O)(O)O)[C@@H](O)[C@H]2O)c(=O)[nH]1; format: biochemical, Saccharomyces cerevisiae; details: 2 mM Co2+, 30°C
# Source text: as §3
# [14] = substrate: Cc1cn([C@@H]2O[C@H](COP(=O)(O)OP(=O)(O)OP(=O)(O)O)[C@@H](O)[C@H]2O)c(=O)[nH]c1=O; format: biochemical, Escherichia coli; details: 2 mM Co2+, 37°C
# Source text: (§4) pyrophosphatase-coupled Pi release assay on YhdE
# [15] = substrate: Cc1cn([C@@H]2O[C@H](COP(=O)(O)OP(=O)(O)OP(=O)(O)O)[C@@H](O)[C@H]2O)c(=O)nc1N; format: biochemical, Escherichia coli; details: 2 mM Co2+, 37°C
# Source text: as §4
# [16] = substrate: Cc1cn([C@H]2C[C@H](O)[C@@H](COP(=O)(O)OP(=O)(O)OP(=O)(O)O)O2)c(=O)[nH]c1=O; format: biochemical, Escherichia coli; details: 2 mM Co2+, 37°C
# Source text: as §4
# [17] = substrate: O=c1[nH]cc([C@@H]2O[C@H](COP(=O)(O)OP(=O)(O)OP(=O)(O)O)[C@@H](O)[C@H]2O)c(=O)[nH]1; format: biochemical, Escherichia coli; details: 2 mM Co2+, 37°C
# Source text: as §4
protein,measurement,setting,value
B1,Km,[1],32.8 ± 3.1 µM
same,kcat,[1],1.2 ± 0.1 s⁻¹
same,kcat/Km,[1],37000 M⁻¹ s⁻¹
B2,Km,[2],4.7 ± 0.2 µM
same,kcat,[2],2.4 ± 0.1 s⁻¹
same,kcat/Km,[2],510000 M⁻¹ s⁻¹
same,Km,[3],7.8 ± 0.2 µM
same,kcat,[3],8.5 ± 0.1 s⁻¹
same,kcat/Km,[3],1.1e+06 M⁻¹ s⁻¹
same,Km,[4],25.0 ± 0.8 µM
same,kcat,[4],7.1 ± 0.1 s⁻¹
same,kcat/Km,[4],280000 M⁻¹ s⁻¹
same,Km,[5],5.7 ± 0.3 µM
same,kcat,[5],7.2 ± 0.2 s⁻¹
same,kcat/Km,[5],1.3e+06 M⁻¹ s⁻¹
B3,Km,[6],30.9 ± 1.2 µM
same,kcat,[6],1.5 ± 0.1 s⁻¹
same,kcat/Km,[6],49000 M⁻¹ s⁻¹
B4,Km,[7],10.3 ± 0.7 µM
same,kcat,[7],0.3 ± 0.01 s⁻¹
same,kcat/Km,[7],29000 M⁻¹ s⁻¹
same,Km,[8],16.1 ± 1.5 µM
same,kcat,[8],1.5 ± 0.1 s⁻¹
same,kcat/Km,[8],93000 M⁻¹ s⁻¹
same,Km,[9],17.4 ± 0.8 µM
same,kcat,[9],0.8 ± 0.02 s⁻¹
same,kcat/Km,[9],46000 M⁻¹ s⁻¹
same,Km,[10],10.7 ± 0.6 µM
same,kcat,[10],0.2 ± 0.01 s⁻¹
same,kcat/Km,[10],19000 M⁻¹ s⁻¹
B5,Km,[11],13.0 ± 0.3 µM
same,kcat,[11],2.2 ± 0.1 s⁻¹
same,kcat/Km,[11],170000 M⁻¹ s⁻¹
same,Km,[12],20 ± 0.4 µM
same,kcat,[12],5.3 ± 0.1 s⁻¹
same,kcat/Km,[12],270000 M⁻¹ s⁻¹
same,Km,[13],29.7 ± 1.4 µM
same,kcat,[13],2.6 ± 0.1 s⁻¹
same,kcat/Km,[13],88000 M⁻¹ s⁻¹
B6,Km,[14],32.0 ± 2.2 µM
same,kcat,[14],18.2 ± 0.7 s⁻¹
same,kcat/Km,[14],570000 M⁻¹ s⁻¹
same,Km,[15],44.8 ± 2.2 µM
same,kcat,[15],9.2 ± 0.2 s⁻¹
same,kcat/Km,[15],210000 M⁻¹ s⁻¹
same,Km,[16],53.0 ± 2.0 µM
same,kcat,[16],15.4 ± 0.3 s⁻¹
same,kcat/Km,[16],290000 M⁻¹ s⁻¹
same,Km,[17],47.2 ± 1.5 µM
same,kcat,[17],10.5 ± 0.2 s⁻¹
same,kcat/Km,[17],220000 M⁻¹ s⁻¹
